Laboratory results published in article PMC2898215.

Target: streptavidin (UniProt P22629 25-183)
Assay: capillary electrophoresis

streptavidin, sequence (P22629 25-183): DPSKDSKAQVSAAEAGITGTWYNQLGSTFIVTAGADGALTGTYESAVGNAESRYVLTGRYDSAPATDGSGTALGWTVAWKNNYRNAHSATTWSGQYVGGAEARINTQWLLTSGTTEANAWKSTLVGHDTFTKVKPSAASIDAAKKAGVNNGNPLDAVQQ

Point of comparison: CTTGTGTTTGCTCCCCGACGCAGGGGACACAAG (structured_DNA) [S10-115 minimal], binding signal 60 % bound. Against it:
- CACGTAACGCATACGCCGCAGTATTTATGTG (structured_DNA) [S10-101 minimal] — higher, > 70 % bound
- CTGTGAGACGACGCACCGGTCGCAGGTTTTGTCTCACAG (structured_DNA) [NRR] — lower, 33 % bound
- CAAACCTCGCGCCGATTGCAGGCAGGTTTG (structured_DNA) [S10-113 minimal] — lower, 50 % bound
- CATATTTAGCGCGTGTGTCGCAACACCTATATATG (structured_DNA) [S10-104 minimal] — lower, 53 % bound
- TAGGACAAACGCACACGGCGCAGTGTTTTGACCTA (structured_DNA) [S10-103 minimal] — lower, 48 % bound
